Measured values from the supplement of paper PMC9732359.
± gives the uncertainty stated by the source.

Assay: protein stability index of a GFP-peptide fusion (yeast GPS) (PSI 1-4); higher = more stable; sorted into four equal gates, so the index is relative within each strain
In short: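 Mid-log yeast cultures in leucine-free medium, carrying a pooled plasmid library, were sorted into four equal gates by their GFP/Cherry fluorescence ratio. Each plasmid expressed Cherry along with GFP fused upstream of a tiled 17-residue yeast protein peptide. Plasmids recovered from each gate were PCR-amplified and Illumina-sequenced, with reads assigned to strains by barcodes. The protein stability index was obtained by summing each gate's read frequency weighted by its gate number.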

Sequence	protein stability index (doa10∆)	protein stability index (pdr5∆)	protein stability index (san1∆)	protein stability index (ubr1∆)
NSWFDVTWRTFTGDFLR [FAS1]	2.75 ± 0.11	1.93 ± 0.093	1.98 ± 0.12	2.61 ± 0.069
VKCEELSNTLACYRTIM [RRP40]	2.24 ± 0.069	2.49 ± 0.093	2.01 ± 0.087	2.57 ± 0.075
NGTLIGCVSYSPAALKQ [YMR153W/NUP53]	1.85 ± 0.06	2.27 ± 0.086	1.83 ± 0.097	2.26 ± 0.045
GYQWGEENKDIMNVLSE [PRP8]	2.8 ± 0.22	–	–	3.16 ± 0.24
HLLLGFQVSNVISLGPN [YJL039C/NUP192]	1.37 ± 0.052	1.75 ± 0.049	2.08 ± 0.088	1.8 ± 0.042
LAVSTILGKNFDSVIVE [SMC1]	2.86 ± 0.066	2.59 ± 0.064	2.44 ± 0.056	2.45 ± 0.047
QCIVYPNCLFILKLLNG [SOH1]	1.3 ± 0.062	1.51 ± 0.061	1.27 ± 0.14	1.29 ± 0.047
FQVHERLAPLIKEENDM [ARP7]	–	3.58 ± 0.17	2.97 ± 0.15	3.22 ± 0.28
FAAIPEQGIELEHIDSK [FAS2]	3.17 ± 0.16	2.85 ± 0.21	3.39 ± 0.084	3.41 ± 0.1
KTTDHLFDAAFYMKKDA [RPO31]	3 ± 0.075	3.21 ± 0.071	3.21 ± 0.05	3.05 ± 0.054
AKAGLTFPVGRVHRLLR [HTA1]	2.03 ± 0.11	2.72 ± 0.14	2.01 ± 0.16	2.39 ± 0.12
KLDKQINMADRSLGLQQ [POP6]	3.02 ± 0.12	3.46 ± 0.21	3.02 ± 0.16	3.62 ± 0.26
DPLAKVNVLLQSYFSQL [BRR2]	1.28 ± 0.049	1.78 ± 0.054	1.58 ± 0.092	1.54 ± 0.05
RAAKLAAPENEKPAPVR [RPS15]	3.21 ± 0.1	3.15 ± 0.11	2.89 ± 0.073	3.36 ± 0.082
GSENKRGSLDSEHVFDY [NUT1]	3.37 ± 0.14	3.29 ± 0.11	3.32 ± 0.2	3.57 ± 0.05
TLIKKKQDEKKSSELEL [SMC2]	3.24 ± 0.076	3.37 ± 0.071	3.29 ± 0.047	3.05 ± 0.046
PDEAIEKVFNAYPAARE [FAS1]	2.94 ± 0.099	3.22 ± 0.1	3.11 ± 0.059	3.1 ± 0.093
EKVTIAPLVLLSALDHY [RPN8]	1.62 ± 0.033	1.63 ± 0.031	1.42 ± 0.06	1.48 ± 0.029
MVNESDGVTHALYPQEA [RPB2]	3.16 ± 0.087	3.26 ± 0.081	3.05 ± 0.067	3.35 ± 0.086
ENLADLDYQIGNSESKV [LIN1]	3.23 ± 0.099	3.42 ± 0.11	3.06 ± 0.12	3.42 ± 0.1
DGTSTEKTFLHLPCTIE [RPN8]	2.7 ± 0.1	1.78 ± 0.055	2.1 ± 0.065	1.41 ± 0.044

Sequence	protein stability index (doa10∆)	protein stability index (pdr5∆)	protein stability index (san1∆)	protein stability index (ubr1∆)
NWRKQKGIDSVVRRRFR [RPL32]	2.56 ± 0.1	2.66 ± 0.17	–	2.28 ± 0.18
ATFLKLAAPQLVQMYIG [RPT5]	1.31 ± 0.25	–	1.2 ± 0.21	1.44 ± 0.23
NVNLDDYPDDSGWTPFH [NAS6]	3 ± 0.091	2.91 ± 0.069	2.92 ± 0.061	2.96 ± 0.066
VVTSSVAESFTDEADSS [SNF2]	3.03 ± 0.095	2.98 ± 0.1	3.15 ± 0.075	3.01 ± 0.084
SKKLNLKIHQSHLVVPY [YMR129W/POM152]	2.32 ± 0.15	1.95 ± 0.086	–	2.88 ± 0.14
CLSDYTKKISNFNSSLH [YJL039C/NUP192]	1.56 ± 0.061	2.04 ± 0.057	1.72 ± 0.083	1.25 ± 0.036
LLCDKAQKNTQSYGGRP [PRE5]	3.17 ± 0.14	3.27 ± 0.095	3.37 ± 0.092	3.26 ± 0.077
LDYQIGNSESKVEKGVN [LIN1]	3.12 ± 0.12	3.4 ± 0.18	2.92 ± 0.15	3.38 ± 0.13
TDPKELYNNAHVYARDL [RPC40]	3.51 ± 0.23	2.94 ± 0.11	2.93 ± 0.13	–
ASFYSVNTEKKTIEVTA [RPN3]	–	1.29 ± 0.11	–	1.65 ± 0.28
RVNGSEFVHKYLGEGPR [RPT3]	2.45 ± 0.057	2.88 ± 0.063	2.79 ± 0.056	3 ± 0.061
DSVFSFGPKKENRKKDE [YLR335W/NUP2]	3.01 ± 0.091	2.86 ± 0.078	2.9 ± 0.048	3.03 ± 0.056
KLSSAENANADLENKFN [YIL149C/MLP2]	3.06 ± 0.063	3.31 ± 0.073	3.07 ± 0.062	3.1 ± 0.042
LGKRSILAAAHRDAYSG [PRE2]	2.93 ± 0.2	3.26 ± 0.2	2.33 ± 0.18	2.85 ± 0.083
DIISGKIHSILPVMESL [YJR042W/NUP85]	2.85 ± 0.074	3.13 ± 0.11	2.84 ± 0.11	2.4 ± 0.062
VMTYKGEVLGITRFGLS [RPO31]	3.37 ± 0.16	–	3.09 ± 0.12	3.46 ± 0.29
GVCNHAFHLHCINKWIK [HRT1]	1.77 ± 0.045	2.49 ± 0.04	1.64 ± 0.068	2.16 ± 0.042
HNSHLSLNYKFTTNKSK [SRP21]	2.46 ± 0.073	2.07 ± 0.052	2.38 ± 0.076	2.41 ± 0.05
FANNLKSAISNNFRESD [SIR4]	2.55 ± 0.053	2.59 ± 0.048	2.56 ± 0.044	2.41 ± 0.042
EIMEERNVEQKLNELDE [NNF1]	3.11 ± 0.08	2.94 ± 0.077	3.13 ± 0.052	3.27 ± 0.045
